Measurements published in patent publication US20220127569A1, “METHODS OF PROMOTING THYMIC EPITHELIAL CELL AND THYMIC EPITHELIAL CELL PROGENITOR DIFFERENTIATION OF PLURIPOTENT STEM CELLS, RESULTING CELLS, AND USES THEREOF” (THE TRUSTEES OF COLUMBIA UNIVERSITY IN THE CITY OF NEW YORK, priority 2019, published 2022).

How the values were obtained:
pluripotent cells = test: OCT4 expression (qPCR) in day 30 hES-TEP cultures after survivin inhibitor treatment; type: cell-based, human; details: YM155 20 nM in the final 24 hours of culture, protocol #4c vs #4c+YM155
Procedure: After 108 hours in total on low-adherence plates with endoderm induction media (described above), embryoid bodies were collected and, without being trypsinized, plated on matrigel-coated, 24-well tissue culture plates (approximately 50,000-70,000 cells/well) in SFD medium supplemented with 200 ng/mL recombinant human (rh) Noggin and 10 μM SB431542 (NS) (as described in established protocols Green et al. 2011), with Retinoic Acid (0.25 μM) and FGF8b 50 ng/mL (as a novel modification of this protocol) for 48 hours. […]
(§1) Quantitative Real-Time PCR Total RNA from clusters of ES cells differentiated for the indicated time with the indicated culture method was extracted using Trizol (Invitrogen), and Direct-zol RNA Miniprep Kit (Zymo Research) according to the manufacturer's instructions. […] Real-time quantitative PCR was performed in 20 ul volume using ABI Power SYBR Green PCR Master Mix on an ABI ViiA7 Thermocycler (Applied Biosystems Life Technologies). […] Quantification of each gene transcript was obtained by comparing the average of triplicate experimental CT values to a standard curve of serially diluted genomic DNA for each primer target and then normalized by dividing by the CT housekeeping gene b-Actin.

NSG mice = test: Teratoma formation after hES-TEP transplantation in mice; type: in vivo, mouse; details: mice grafted with day 30 hES-TEPs treated with YM155
Procedure: Six to ten week old NSG mice were thymectomized as described (Khosravi-Maharlooei et al. 2020) and allowed to recover for at least 3 weeks. After recovery, animals were conditioned with 1.8 Gy total body irradiation (TBI) via X-rays. Cryopreserved fetal swine thymus (60-90 days gestation) was thawed in Medium 199 supplemented with DNAse, gentamicin and HEPES as above. Fetal swine fragments (1-2 mm^3) were injected or not with 2×10^5 hES-derived TEPs with a 28 gauge syringe and coated with 50% matrigel (Corning) in Medium 199. Four to 24 hours after TBI, 1-2×10^6 hES-derived TEPs mixed with 1-2×10^6 thymic mesenchymal cells, 1-2×10^6 thymic mesenchymal cells alone, fetal swine thymus injected with hES-TEPs or fetal swine thymus alone were implanted beneath the kidney capsule and 2×10^5 fetal human CD34+ cells were injected intravenously. Peripheral human immune reconstitution was assayed every 2-3 weeks post-grafting after full recovery as indicated. Blood was collected from the tail vein and immune populations enriched by density gradient centrifugation with Ficoll as described above. […] Gene correlations were evaluated with Pearson Correlation Coefficient with p<0.05 considered significant, linear regression was also performed and r-square determined. Euthanasia due to teratoma growth was plotted on a Kaplan-Meyer plot and analyzed by Mantel Cox Log-rank test to determine p-value. […]

hESCs = test: qPCR gene expression (PAX9, FOXN1) in hESC-derived TEP cultures up to day 30; type: cell-based, human
Procedure: After 108 hours in total on low-adherence plates with endoderm induction media (described above), embryoid bodies were collected and, without being trypsinized, plated on matrigel-coated, 24-well tissue culture plates (approximately 50,000-70,000 cells/well) in SFD medium supplemented with 200 ng/mL recombinant human (rh) Noggin and 10 μM SB431542 (NS) (as described in established protocols Green et al. 2011), with Retinoic Acid (0.25 μM) and FGF8b 50 ng/mL (as a novel modification of this protocol) for 48 hours. For pharyngeal endoderm, the resulting cells were then treated for 24 hours with FGF8b (50 ng/mL) and Retinoic Acid ([…]) followed by 8 days with FGF8b (50 ng/mL) and Sonic Hedgehog (Shh) (100 ng/mL) (FIG. 1B). For the 3rd pharyngeal pouch specification, cells were then exposed to rhNoggin (200 ng/mL) for 6 days, and then to BMP4 (10 ng/mL) until day 30 of differentiation (FIG. 2A). To avoid the formation of teratomas after engrafting in mice, cells were also exposed to survivin inhibitor YM155 (20 nM) (Lee et al. 2013)) for 24 hours during the last step in the later experiments (FIG. 4A). During the entire process, cell cultures were maintained in a 5% C02/air environment at 37° C. Cells were fed every 24 hours.
as §1, with “instructions. NanoDrop 2000 spectrophotometer (ThermoFisher Scientific) was used to determine RNA concentration.” for “instructions.”

ESCs = test: Flow cytometry / efficiency of definitive endoderm and anterior foregut endoderm induction; type: cell-based, human; details: day 4.5 dissociated embryoid bodies
Procedure: The differentiation was performed as described Huang et al. 2014 in serum-free differentiation (SFD) medium consisting of DMEM/F12 (3:1) (Life Technologies) supplemented with N2 [Gibco (Life Technologies)], B27 (Gibco), ascorbic acid (50 μg/ml, Sigma), Glutamax (2 mM, Life Technologies), monothioglycerol (0.4 μM, Sigma), 0.05% bovine serum albumin (BSA) (Life Technologies) and 1% penicillin-streptomycin (Thermo Fisher Scientific, Waltham, Mass.). Cells were then briefly trypsinized (0.05%, 1 min at 37° C.) into single cell suspension and plated onto low attachment 6-well plates [Costar 2 (Corning Incorporated, Tewksbury Mass.)] to form embryoid bodies in serum-free differentiation medium containing human BMP4, 0.5 ng/ml, human bFGF, 2.5 ng/ml (R&D Systems) and human activin A, 100 ng/ml (R&D Systems) for 84 hours (3.5 days approximately) on low-adherence plates. Embryoid bodies were then collected, briefly trypsinized (0.05%, 1 min at 37° C.) into 3-10 small cell clumps and resuspended again in endoderm induction medium for another 24 hours. Cells were fed every 24-48 hr (depending on the density) and maintained in a 5% CO2/5% O2/90% N2 environment. […]
Human immune reconstitution and differentiation efficiency of hES-TEP cultures were determined by multi-parametric flow cytometry. […]

Molecule: COCCn1c2c([n+](Cc3cnccn3)c1C)C(=O)c1ccccc1C2=O [YM155]
- OCT4 expression (pluripotent cells): significantly reduced
- animals developing teratomas (NSG mice): 3 of 15

B1: BMP4: human Bone Morphogenic Protein 4 (protein, UniProt P12644 293-408, looked up)
Bone morphogenetic protein 4: SPKHHSQRARKKNKNCRRHSLYVDFSDVGWNDWIVAPPGYQAFYCHGDCPFPLADHLNSTNHAIVQTLVNSVNSSIPKACCVPTELSAISMLYLDEYDKVVLKNYQEMVVEGCGCR
- expression of FoxN1 (hESCs; BMP4 added to day 15 cultures without prior Noggin, assayed at culture day 22 and 30, protocols #3b and #4b): failed to induce expression
- FOXN1 expression day 30 vs day 21 (hESCs; protocol #4c, before and after BMP4 exposure): significantly higher

B2: Noggin: recombinant human Noggin, a BMP4 antagonist and/or inhibitor (protein, UniProt Q13253 28-232, looked up)
Noggin: QHYLHIRPAPSDNLPLVDLIEHPDPIFDPKEKDLNETLLRSLLGGHYDPGFMATSPPEDRPGGGGGAAGGAEDLAELDQLLRQRPSGAMPSEIKGLEFSEGLAQGKKQRLSKKLRRKLQMWLWSQTFCPVLYAWNDLGSRFWPRYVKVGSCFSKRSCSVPEGMVCKPSKSVHLTVLRWRCQRRGGQRCGWIPIQYPIISECKCSC
- PAX9 expression (hESCs; Noggin from day 16 to day 22, protocols #3c and #4c vs #3b and #4b, day 30): significantly increased

B3: Activin A: human activin A used in endoderm induction medium (protein, UniProt P08476 311-426, looked up)
Inhibin beta A chain: GLECDGKVNICCKKQFFVSFKDIGWNDWIIAPSGYHANYCEGECPSHIAGTSGSSLSFHSTVINHYRMRGHSPFANLKSCCVPTKLRPMSMLYYDDGQNIIKKDIQNMIVEECGCS
- co-expression of endoderm markers EpCAM and CXCR4, cells (ESCs): 98.3%
